By Kd is commonly meant the equilibrium constant for the complex coming apart.

The target of the test is T1, Staphylococcus aureus manganese transporter protein MntC, wild type, recombinant (Staphylococcus aureus, UniProt W8TNQ9 1-309).
T1 chain: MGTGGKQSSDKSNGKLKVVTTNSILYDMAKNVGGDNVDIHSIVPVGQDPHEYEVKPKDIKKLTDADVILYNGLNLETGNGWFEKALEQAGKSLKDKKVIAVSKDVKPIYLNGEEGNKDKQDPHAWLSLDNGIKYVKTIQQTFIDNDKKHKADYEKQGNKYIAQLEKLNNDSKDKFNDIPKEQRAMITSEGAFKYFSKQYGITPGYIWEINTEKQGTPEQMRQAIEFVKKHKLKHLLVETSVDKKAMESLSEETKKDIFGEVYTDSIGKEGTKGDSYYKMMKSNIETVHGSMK
The test is described as follows: ELISA. A general note: An ELISA detects its analyte on a solid surface through an enzyme-linked reagent.

B1: monoclonal antibody mAB 305-78-7 (intact antibody, interference group 2) (antibody, V domains shown)
VH: QVQLQQSGAELARPGASVKMSCKASGYTFTRYTMHWVQQRPGQGLEWIGYINPSSDYTKYNQKFKDKATMTADKSSSTAYMQLSSLTSEDSAVYYCARKEDVGYWYFDFWGTGTTVTVSS
VL: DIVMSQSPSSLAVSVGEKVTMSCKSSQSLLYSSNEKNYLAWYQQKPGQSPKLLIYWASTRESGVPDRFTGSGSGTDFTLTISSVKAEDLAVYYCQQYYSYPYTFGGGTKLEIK
As to B1, the Kd amounted to 1.3 nM.
